Experimental data from patent US12440573B2, “Antibody-conjugates for targeting of tumours expressing PTK7” (Synaffix B.V., priority 2022, dated 2025).
Marks after values point to notes of the source that are not given here.

Assays:
[1] = system: PTK7 expressing NCl—H446 tumor model; assay: In vivo efficacy study, NCl—H446 xenograft, with Olaparib (Example 33); set-up: species or system BALB/c nude mice; settings: ADC 2.5 mg/kg single IV dose; Olaparib 50 mg/kg orally QD×21 days
Procedure: (§1) NCl—H446, lung cancer xenograft model cell line was maintained in vitro using RPMI-1640 medium supplemented with 10% FBS in humidified cell culture incubator at 37° C. with standard 5% CO2 specs. The cells in an exponential growth phase were harvested and counted for tumor inoculation.
BALB/c nude mice (female) of 7-9 weeks old received a subcutaneous injection in the right front flank region with 5×10^6 tumor cells in 0.1 ml of PBS mixed with Matrigel (1:1) for tumor development. When tumors reached an average size of 100-200 mm^3, randomization was performed into 5 groups of 8 mice and treatment began. Randomization will be performed based on “Matched distribution” method (Study Director™ Software, version 3.1.399.19). The date of randomization will be denoted as day 0.
(§2) Electronic caliper measurement were performed 2 times a week. Daily observations for clinical signs, food and water consumption, behavioral changes, animals were weighed 2 times per week. […]
(§3) Observation and data collection: After tumor cells inoculation, the animals are checked daily for morbidity and mortality. […] Tumor volumes are measured every 3-4 days in two dimensions using an caliper, and the volume data are expressed in mm3 using the formula: V=(L×W×W)/2, where V is tumor volume, L is tumor length (the longest tumor dimension) and W is tumor width (the longest tumor dimension perpendicular to L). […]

[2] = system: A431 (PTK7+, ATCC CRL-1555) cells; assay: In vitro cytotoxicity, resazurin viability; type: cell-based; settings: 5 days incubation
Procedure: A431 (PTK7+, ATCC CRL-1555) cells were plated in 96-well plates (10000 cells in 150 μL/well) in DMEM (ATCC) supplemented with 10% fetal bovine serum (FBS) (Invitrogen) and incubated overnight in a humidified atmosphere at 37° C. and 5% CO2. ADCs were added in triplo in a square root of 10 dilution series to obtain a final concentration ranging from 100 nM-0.01 nM. The cells were incubated for 5 days in a humidified atmosphere at 37° C. and 5% CO2. The culture medium was replaced by 0.01 mg/mL resazurin (Sigma Aldrich) in DMEM supplemented with 10% FBS (200 μL/well). After approximately 4 hours in a humidified atmosphere at 37° C. and 5% CO2 the fluorescence was detected with a fluorescence plate reader (Infinite® M1000 Tecan) at 560 nm excitation and 590 nm emission. The relative fluorescent units (RFU) were normalized to cell viability percentage by setting wells without cells at 0% viability and wells with untreated cells at 100% viability (see FIG. 9). IC50 values for ADCs on A431 cells were calculated by non-linear regression using Graphpad prism software and are shown in the table below: […]

[3] = system: PTK7 expressing NCl—H446 tumor model; assay: In vivo efficacy study, NCl—H446 xenograft (Example 30); set-up: species or system BALB/c nude mice; settings: single IV dose; cofetuzumab-3 2.59, 5.18, 10.36 mg/kg; cofetuzumab-5b 2.59, 5.18 mg/kg; cofetuzumab-Aur0101 2.33 mg/kg; up to t=44 days
Procedure: as §1
BALB/c nude mice (female) of 7-9 weeks old received a subcutaneous injection in the right front flank region with 5×10^6 tumor cells in 0.1 ml of PBS mixed with Matrigel (1:1) for tumor development. When tumors reached an average size of 100-200 mm^3, randomization was performed into 10 groups of 8 mice and treatment began. Randomization will be performed based on “Matched distribution” method (Study Director™ Software, version 3.1.399.19). The date of randomization will be denoted as day 0.
as §2
as §3, with “collection.” for “collection: After tumor cells inoculation, the animals are checked daily for morbidity and mortality.”

[4] = Stability of ADCs in mice plasma (DAR by RP-UPLC); type: in vitro ADME
Procedure: (§4) General procedure for analytical RP-UPLC (DTT treated samples): Prior to RP-UPLC analysis, IgG (10 μL, 1 mg/mL in PBS pH 7.4) was added to 12.5 mM DTT, 100 mM TrisHCl pH 8.0 (40 μL) and incubated for 15 minutes at 37° C. The reaction was quenched by adding 49% acetonitrile, 49% water, 2% formic acid (50 μL). RP-UPLC analysis was performed on a Waters Acquity UPLC-SQD. The sample (5 μL) was injected with 0.4 mL/min onto Bioresolve RP mAb 2.1*150 mm 2.7 μm (Waters) with a column temperature of 70° C. A linear gradient was applied in 9 minutes from 30 to 54% acetonitrile in 0.1% TFA and water. Absorbance of eluted peaks was measured at 215 nm followed by automated integration (MassLynx, Waters) to determine reaction conversion.
(§5) Stability of ADCs in mice and human plasma was tested. Prior to the assay, the plasma was depleted from all IgG using CaptivA® Protein A agarose (1 mL agarose/mL serum). ADCs were added to the depleted human/mouse serum to a final concentration of 0.1 mg/mL followed by incubation at 37° C. At each time point, 0.5 mL was snap frozen and stored at −80° C. until further analysis. To isolate the ADCs after incubation, 20 μl CaptivA® Protein A agarose resin was added to the samples and incubated for 1 hour at room temperature. The resin was washed three times with PBS and subsequently 0.1 M Glycine-HCl pH 2.7 (0.4 mL) was added to elute the ADCs. After elution, the samples were immediately neutralized with 1.0 M Tris pH 8.0 (0.1 mL). The samples were spin-filtered against PBS for three times using Amicon Ultra spin-filter 0.5 mL MWCO 10 kDa (Merck Millipore) and the volume was reduced to 40 μL, yielding a final ADC concentration of approximately 1 mg/mL. Samples were analyzed on RP-UPLC (DTT reduced) to determine the DAR, tables below.

[5] = Stability of ADCs in human plasma (DAR by RP-UPLC); type: in vitro ADME
Procedure: as §4, §5

[6] = human plasma, 0.1 mg/mL, 37° C.

Compound: O=C(c1cc(Cc2n[nH]c(=O)c3ccccc23)ccc1F)N1CCN(C(=O)C2CC2)CC1 [Olaparib]
- in vivo efficacy (tumor volume over time), single treatment [1]: no significant effect

Compound: B12-3: B12(6-N3-GalNAc)2 conjugated with BCN—HS-PEG2-HS-(va-PAB-Ex)2 3; negative / isotype control ADC [reference compound]
- IC50 [2]: > 100 nM

Compound: cofetuzumab-5b: cofetuzumab(6-N3-GalNAc)2 conjugated with BCN—HS-vc-PABC-calicheamicin 5b; average DAR 1.93
- in vivo efficacy (tumor volume over time) [3]: tumor growth delay
- IC50 [2]: 0.1 nM

Compound: cofetuzumab-Aur0101: TCEP-reduced cofetuzumab conjugated with Auristatin0101; average DAR 4.3; conventional comparator ADC [reference compound]
- in vivo efficacy (tumor volume over time) [3]: only marginal tumor growth delay
- DAR t = 0 ([4]; mice plasma table, direct measurement (not through isolation from plasma with protA agarose resin)): 4.21*
- DAR t = 1 ([4]; mice plasma, 0.1 mg/mL, 37° C.): 3.64
- DAR t = 3 ([4]; mice plasma, 0.1 mg/mL, 37° C.): 3.26
- DAR t = 7 ([4]; mice plasma, 0.1 mg/mL, 37° C.): 2.46
- DAR t = 7, % of t = 0 ([4]; mice plasma, 0.1 mg/mL, 37° C.): 58%
- DAR t = 0 ([5]; human plasma table, direct measurement (not through isolation from plasma with protA agarose resin)): 4.21*
- DAR t = 3 [5, 6]: 3.61
- DAR t = 14 [5, 6]: 2.67
- DAR t = 14, % of t = 0 [5, 6]: 63%
